This is an account of results in patent publication US7041441 (US Dept. of Health and Human Services, dated 2006).

This assay deals with T1, gp23* (major capsid protein of bacteriophage T4, cleaved mature form, in the expanded surface lattice) (bacteriophage T4, UniProt P04535 66-521).
T1 construct: mature; also called surface lattice protein; cleaved/expanded polyheads
T1 sequence: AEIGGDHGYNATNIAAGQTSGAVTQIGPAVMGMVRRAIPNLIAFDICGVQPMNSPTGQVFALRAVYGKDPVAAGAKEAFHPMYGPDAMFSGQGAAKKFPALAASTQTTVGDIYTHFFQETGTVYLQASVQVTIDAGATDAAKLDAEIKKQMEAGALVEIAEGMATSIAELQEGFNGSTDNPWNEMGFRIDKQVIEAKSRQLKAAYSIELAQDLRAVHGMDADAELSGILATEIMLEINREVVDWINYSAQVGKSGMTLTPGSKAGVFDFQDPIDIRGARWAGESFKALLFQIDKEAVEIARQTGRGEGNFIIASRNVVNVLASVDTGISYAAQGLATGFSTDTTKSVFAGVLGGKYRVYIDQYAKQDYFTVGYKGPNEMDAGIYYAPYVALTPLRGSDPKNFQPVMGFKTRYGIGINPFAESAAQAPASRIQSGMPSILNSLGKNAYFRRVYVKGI
Briefly: co-pelleting with cleaved/expanded polyheads, quantitation of SDS-PAGE bands.

B1: SOC-V3 fusion protein (SOC, Cys-Leu-Asn-Ser, 43-residue V3 loop domain of HIV-1 gp120) (other)
chain: MASTRGYVNIKTFEQKLDGNKKIEGKEISVAFPLYSDVHKISGAHYQTFPSEKAAYSTVYEENQRTEWIAANEDLWKVTGCLNSSVEINCTRPNNNTRKRIRIQRGPGRAFVTIGKIGNMRQAHCNI
notes: mature;domain: V3 loop; also called SOV-V3
B1: the “molar ratio of SOC-V3:gp23*” value amounted to 1.8 mol/mol.

B2: SOC (small outer capsid) protein of bacteriophage T4, wild type (other)
chain: MASTRGYVNIKTFEQKLDGNKKIEGKEISVAFPLYSDVHKISGAHYQTFPSEKAAYSTVYEENQRTEWIAANEDLWKVTG
notes: mature
Turning to B2, the “molar ratio of SOC:gp23*” value was determined as 1.2 mol/mol.
